Reference: patent US20030032788

Target: T1, endogenous rat mitochondrial aldehyde dehydrogenase (ALDH2) of H4-II-E-C3 hepatoma cells, P11884
T1 chain: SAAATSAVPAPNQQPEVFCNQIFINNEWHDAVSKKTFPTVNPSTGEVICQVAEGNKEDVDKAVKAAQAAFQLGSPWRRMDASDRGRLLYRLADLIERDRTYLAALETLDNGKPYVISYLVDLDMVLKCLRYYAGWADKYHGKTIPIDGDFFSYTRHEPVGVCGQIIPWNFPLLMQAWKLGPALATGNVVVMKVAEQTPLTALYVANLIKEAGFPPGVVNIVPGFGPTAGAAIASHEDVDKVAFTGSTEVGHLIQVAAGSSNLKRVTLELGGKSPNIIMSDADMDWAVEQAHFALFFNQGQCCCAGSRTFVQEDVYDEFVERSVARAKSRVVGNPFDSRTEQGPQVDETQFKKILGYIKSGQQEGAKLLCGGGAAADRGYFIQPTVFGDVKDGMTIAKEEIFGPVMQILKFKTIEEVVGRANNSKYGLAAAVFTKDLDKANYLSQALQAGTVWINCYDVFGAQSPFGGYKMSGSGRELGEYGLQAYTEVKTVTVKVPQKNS

| Protein | ALDH2 specific activity of ALDH2-2 transduced H4 clones (lower end of range) (nanomoles/minute/milligram protein) | ALDH2 specific activity of ALDH2-2 transduced H4 clones (mean ± SEM, N=22) (nanomoles/minute/milligram protein) | ALDH2 specific activity of ALDH2-2 transduced H4 clones (upper end of range) (nanomoles/minute/milligram protein) | reduction in hepatocyte ALDH2 activity | ALDH2 specific activity of ALDH2-1 transduced H4 clones (lower end of range) (nanomoles/minute/milligram protein) | ALDH2 specific activity of ALDH2-1 transduced H4 clones (mean ± SEM, N=15) (nanomoles/minute/milligram protein) | ALDH2 specific activity of ALDH2-1 transduced H4 clones (upper end of range) (nanomoles/minute/milligram protein) | increase of ALDH activity relative to the empty vector control group |
| --- | --- | --- | --- | --- | --- | --- | --- | --- |
| human ALDH2-2 (mutant) monomer, expressed from the retroviral vector pLHCK3'UT in rat hepatoma H4-II-E-C3 cells (protein) SAAATQAVPAPNQQPEVFCNQIFINNEWHDAVSRKTFPTVNPSTGEVICQVAEGDKEDVDKAVKAARAAFQLGSPWRRMDASHRGRLLNRLADLIERDRTYLAALETLDNGKPYVISYLVDLDMVLKCLRYYAGWADKYHGKTIPIDGDFFSYTRHEPVGVCGQIIPWNFPLLMQAWKLGPALATGNVVVMKVAEQTPLTALYVANLIKEAGFPPGVVNIVPGFGPTAGAAIASHEDVDKVAFTGSTEIGRVIQVAAGSSNLKRVTLELGGKSPNIIMSDADMDWAVEQAHFALFFNQGQCCCAGSRTFVQEDIYDEFVERSVARAKSRVVGNPFDSKTEQGPQVDETQFKKILGYINTGKQEGAKLLCGGGIAADRGYFIQPTVFGDVQDGMTIAKEEIFGPVMQILKFKTIEEVVGRANNSTYGLAAAVFTKDLDKANYLSQALQAGTVWVNCYDVFGAQSPFGGYKMSGSGRELGEYGLQAYTKVKTVTVKVPQKNS | 15 | 40.4 | 54 | leads to a >60% reduction in hepatocyte ALDH2 activity |  |  |  |  |
| human ALDH2-1 (wild-type) monomer, expressed from the retroviral vector pLNCE in rat hepatoma H4-II-E-C3 cells (protein) SAAATQAVPAPNQQPEVFCNQIFINNEWHDAVSRKTFPTVNPSTGEVICQVAEGDKEDVDKAVKAARAAFQLGSPWRRMDASHRGRLLNRLADLIERDRTYLAALETLDNGKPYVISYLVDLDMVLKCLRYYAGWADKYHGKTIPIDGDFFSYTRHEPVGVCGQIIPWNFPLLMQAWKLGPALATGNVVVMKVAEQTPLTALYVANLIKEAGFPPGVVNIVPGFGPTAGAAIASHEDVDKVAFTGSTEIGRVIQVAAGSSNLKRVTLELGGKSPNIIMSDADMDWAVEQAHFALFFNQGQCCCAGSRTFVQEDIYDEFVERSVARAKSRVVGNPFDSKTEQGPQVDETQFKKILGYINTGKQEGAKLLCGGGIAADRGYFIQPTVFGDVQDGMTIAKEEIFGPVMQILKFKTIEEVVGRANNSTYGLAAAVFTKDLDKANYLSQALQAGTVWVNCYDVFGAQSPFGGYKMSGSGRELGEYGLQAYTEVKTVTVKVPQKNS |  |  |  |  | 42 | 54.7 | 78 | ALDH activity was increased by as much as 52% in some ALDH2-1 transduced clones |
